From publication PMC12748787 (Communications Biology, 2025)
Where a chain is given by its changes, count along the chain named. Names may count otherwise.

T1: JPH2 MORN-Helix (as used in SEC-MALS) (mouse, UniProt Q9ET78 1-440, Δ176-273)
T1 sequence (looked up): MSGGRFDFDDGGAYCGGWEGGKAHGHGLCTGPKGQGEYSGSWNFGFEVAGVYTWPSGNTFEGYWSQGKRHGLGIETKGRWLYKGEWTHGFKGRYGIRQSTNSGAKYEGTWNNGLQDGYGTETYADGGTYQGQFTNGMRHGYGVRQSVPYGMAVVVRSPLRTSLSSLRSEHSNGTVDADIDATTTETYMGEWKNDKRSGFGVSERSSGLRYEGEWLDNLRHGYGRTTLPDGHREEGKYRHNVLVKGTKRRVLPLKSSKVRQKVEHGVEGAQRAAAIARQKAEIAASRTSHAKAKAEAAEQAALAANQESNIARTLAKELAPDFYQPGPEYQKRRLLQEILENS

T2: MBP-Mus_JPH3 NT WT (mouse, UniProt Q9ET77 1-446)
T2 sequence (looked up): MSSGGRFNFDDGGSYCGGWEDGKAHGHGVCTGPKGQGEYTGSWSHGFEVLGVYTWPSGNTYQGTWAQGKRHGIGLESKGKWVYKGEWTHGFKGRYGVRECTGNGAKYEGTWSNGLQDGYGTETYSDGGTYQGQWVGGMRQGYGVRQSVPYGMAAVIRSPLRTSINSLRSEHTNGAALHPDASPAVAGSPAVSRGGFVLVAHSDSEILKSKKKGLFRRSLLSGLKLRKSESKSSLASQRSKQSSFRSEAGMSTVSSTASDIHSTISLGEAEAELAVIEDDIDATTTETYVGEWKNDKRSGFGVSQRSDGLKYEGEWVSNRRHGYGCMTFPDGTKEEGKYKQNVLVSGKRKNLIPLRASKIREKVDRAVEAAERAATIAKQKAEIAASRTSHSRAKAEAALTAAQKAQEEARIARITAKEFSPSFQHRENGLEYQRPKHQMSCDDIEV

T3: MBP-JPH2 NT (mouse, wild type) (mouse, UniProt Q9ET78 1-440)
T3 sequence (looked up): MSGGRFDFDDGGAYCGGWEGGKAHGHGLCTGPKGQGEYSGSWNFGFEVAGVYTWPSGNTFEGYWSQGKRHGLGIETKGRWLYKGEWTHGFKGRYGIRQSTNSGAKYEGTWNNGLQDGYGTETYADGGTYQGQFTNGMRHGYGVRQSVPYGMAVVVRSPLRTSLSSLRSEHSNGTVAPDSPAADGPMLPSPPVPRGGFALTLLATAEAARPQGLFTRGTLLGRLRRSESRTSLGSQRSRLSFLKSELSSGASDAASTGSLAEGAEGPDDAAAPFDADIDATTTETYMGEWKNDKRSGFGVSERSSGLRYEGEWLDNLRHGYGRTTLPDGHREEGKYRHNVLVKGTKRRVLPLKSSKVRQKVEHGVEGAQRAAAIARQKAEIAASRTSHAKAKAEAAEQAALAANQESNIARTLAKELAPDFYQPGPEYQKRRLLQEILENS

T4: MBP-JPH2 MORN-Helix (mouse, UniProt Q9ET78 1-440, Δ176-273)
T4 sequence (looked up): T1 sequence (looked up)

T5: MBP-Mus_JPH1 NT WT (mouse, UniProt Q9ET80 1-436)
T5 sequence (looked up): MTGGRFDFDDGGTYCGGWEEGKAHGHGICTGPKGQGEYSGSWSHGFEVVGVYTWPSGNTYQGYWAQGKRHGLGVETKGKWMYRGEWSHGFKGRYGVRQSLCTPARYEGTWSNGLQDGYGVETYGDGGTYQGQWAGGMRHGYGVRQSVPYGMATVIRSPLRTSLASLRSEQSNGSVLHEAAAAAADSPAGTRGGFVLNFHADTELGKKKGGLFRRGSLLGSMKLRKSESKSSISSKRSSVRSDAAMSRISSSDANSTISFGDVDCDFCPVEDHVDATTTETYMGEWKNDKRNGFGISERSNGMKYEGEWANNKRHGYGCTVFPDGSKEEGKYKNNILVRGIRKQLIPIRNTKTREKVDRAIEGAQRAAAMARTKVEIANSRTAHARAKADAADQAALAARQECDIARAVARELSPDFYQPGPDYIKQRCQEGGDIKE

B1: CaV1.2 JBM (as used in SEC and SEC-MALS) (domain or fragment)
chain: not shown
B2: JPH2 NT S165I (domain or fragment, mouse, UniProt Q9ET78 1-440, looked up)
chain: T3 sequence (looked up) with S165I
B3: JPH2 NT (mouse, wild type, as used in SEC-MALS) (domain or fragment, UniProt Q9ET78 1-440, looked up)
chain: T3 sequence (looked up)
B4: MBP-JPH2 NT S165Y (domain or fragment, mouse, UniProt Q9ET78 1-440, looked up)
chain: T3 sequence (looked up) with S165Y
B5: JPH2 NT S165L (domain or fragment, mouse, UniProt Q9ET78 1-440, looked up)
chain: T3 sequence (looked up) with S165L
B6: Trx-CaV1.2 JBM (domain or fragment)
chain: not shown

Key:
[1] = molecular target: T1, JPH2 MORN-Helix (as used in SEC-MALS); assay: SEC-MALS
Trx-CaV1.2 JBM = molecular target: B6; assay: ITC
[2] = molecular target: B1; assay: SEC-MALS
MBP-Mus_JPH3 NT WT = molecular target: T2, MBP-Mus_JPH3 NT WT; assay: ITC
[3] = molecular target: T3, MBP-JPH2 NT (mouse, wild type); assay: ITC
MBP-JPH2 MORN-Helix = molecular target: T4, MBP-JPH2 MORN-Helix; assay: ITC
MBP-Mus_JPH1 NT WT = molecular target: T5, MBP-Mus_JPH1 NT WT; assay: ITC

Sequence of Trx-CaV1.2 JBM (Q01815 1647-1777): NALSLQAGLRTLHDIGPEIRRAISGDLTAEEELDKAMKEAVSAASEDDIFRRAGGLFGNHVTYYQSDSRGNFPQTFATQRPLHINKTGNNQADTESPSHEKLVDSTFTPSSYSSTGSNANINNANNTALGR

Q: Does B1 bind [1]?
A: binds

Q: How did the “fold decrease in affinity against the wild type” value (Trx-CaV1.2 JBM) turn out when B2 was run?
A: 2 fold

Q: With B3 as the binder, how does the “stoichiometry N” value [2] read?
A: 1

Q: Which “fold weakening of the binding against the wild type” value (Trx-CaV1.2 JBM) does the source give for B4 here?
A: ~3 fold

Q: B5 was tested. Which “fold decrease in affinity against the wild type” value (Trx-CaV1.2 JBM) did it give?
A: 2 fold

Q: Which results are given for B6?
A: Kd (MBP-Mus_JPH3 NT WT): 5.82 ± 0.36 µM; Kd [3]: ~6.04 µM; binding result (MBP-JPH2 MORN-Helix): binds; Kd (MBP-Mus_JPH1 NT WT): 5.54 ± 0.71 µM
